Results reported in publication PMC4994864.

Biological target: T1, His-yTop3 (Saccharomyces cerevisiae, UniProt P13099 1-656)
T1 sequence: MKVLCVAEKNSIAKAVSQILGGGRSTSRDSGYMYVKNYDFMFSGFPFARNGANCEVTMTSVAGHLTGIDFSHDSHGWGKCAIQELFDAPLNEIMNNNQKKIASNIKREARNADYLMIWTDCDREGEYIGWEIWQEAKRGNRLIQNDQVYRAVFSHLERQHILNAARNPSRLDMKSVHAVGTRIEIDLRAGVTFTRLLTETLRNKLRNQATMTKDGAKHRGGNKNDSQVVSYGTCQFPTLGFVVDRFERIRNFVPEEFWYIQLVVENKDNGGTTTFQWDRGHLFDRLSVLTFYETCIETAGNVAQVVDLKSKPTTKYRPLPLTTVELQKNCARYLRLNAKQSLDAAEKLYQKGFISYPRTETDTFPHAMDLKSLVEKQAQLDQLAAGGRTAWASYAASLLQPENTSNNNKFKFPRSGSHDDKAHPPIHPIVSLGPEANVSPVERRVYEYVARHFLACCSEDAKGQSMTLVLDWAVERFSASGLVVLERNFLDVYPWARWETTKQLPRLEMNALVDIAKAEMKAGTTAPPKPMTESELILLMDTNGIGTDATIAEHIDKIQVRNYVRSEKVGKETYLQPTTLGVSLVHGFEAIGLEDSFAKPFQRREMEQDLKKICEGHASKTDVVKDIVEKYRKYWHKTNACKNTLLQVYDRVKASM
Test: EMSA; gel-shift band at 50 nM protein in the RNA topoisomerase reaction; abolished by phenol-chloroform; RNA topoisomerase reaction mixture; buffer, salt, pH and temperature not given in the material

B1: 128-nt circular RNA topoisomerase substrate (structured_RNA)
RNA: GGGAGAUUUUUUUUUUUUUUUUUUUUGUCAGACGGAUCUUUUUUUUUUUUUUUUUUUUUCUCCCGACUGGUUUUUUUUUUUUUUUUUUUUGAUCCGUCUGACUUUUUUUUUUUUUUUUUUUUCCAGUC
modifications: circularised with T4 RNA ligase (5' end joined to 3' end)
B1: binds.
